From publication PMC8322138, “BRCA2 binding through a cryptic repeated motif to HSF2BP oligomers does not impact meiotic recombination” (Nature Communications, 2021)
Ends that are not written are not given here.

Tests used:
[1] = target: T1, HSF2BP FL (Homo sapiens, UniProt O75031); assay: ITC of BRCA2 fragments with full-length HSF2BP; format: binding; details: for n (stoichiometry) / ΔG / −TΔS / ΔH (±error) / affinity (in words): 293 K; for stoichiometry: BRCA2 peptide per HSF2BP
T1 construct: Human full-length HSF2BP WT and R200T were expressed; 6xHis-TEV (N, cleaved yes); made in house; host or cells: E. coli BL21 DE3 Rosetta2
T1 sequence (O75031 1-334): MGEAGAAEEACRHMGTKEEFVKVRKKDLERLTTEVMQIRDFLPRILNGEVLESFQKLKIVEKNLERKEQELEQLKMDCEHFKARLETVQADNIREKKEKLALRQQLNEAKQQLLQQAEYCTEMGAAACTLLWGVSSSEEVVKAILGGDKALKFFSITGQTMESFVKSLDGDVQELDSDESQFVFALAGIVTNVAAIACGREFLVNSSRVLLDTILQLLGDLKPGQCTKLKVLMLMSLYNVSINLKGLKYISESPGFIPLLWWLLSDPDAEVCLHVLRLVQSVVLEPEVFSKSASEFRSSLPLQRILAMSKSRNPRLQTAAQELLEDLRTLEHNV
Text: (§1) Human full-length HSF2BP WT and R200T were expressed using a pETM11 (6xHis-TEV) expression vector in E. coli BL21 DE3 Rosetta2 cells, and purified as previously reported (Brandsma et al., Cell Rep 2019). The armadillo domain of HSF2BP, from aa 122 to aa 334, which we will further name ARM, was similarly expressed using a pETM11 (6xHis-TEV) expression vector in BL21 DE3 Rosetta2 cells and purified as full-length HSF2BP.
(§2) Human BRCA2 fragment F0 was expressed using a pET-22b expression vector as a fusion protein comprising BRCA2 from aa 2213 to aa 2342 (including mutation C2332T to avoid oxidation problems), a TEV site, a GB1 and 6xHis tag, in E. coli BL21 DE3 Star cells. The BRCA2 gene was optimized for expression in bacteria and synthesized by Genscript. In addition, smaller BRCA2 fragments were produced using the same strategy: FNMR and F15X corresponding to aa 2252 to aa 2342 and aa 2291 to aa 2343, respectively. The smallest fragment F15X∆12, from aa 2312 to aa 2342, was synthesized by Genecust.
(§3) ITC experiments were performed using a high-precision VP-ITC instrument (GE Healthcare) at 293 K. To characterize the interactions between HSF2BP and BRCA2 fragments (WT, variants), the proteins were dialyzed against 25 mM Tris pH 7.5, 250 mM NaCl, 5 mM β-mercaptoethanol. The HSF2BP (or ARM domain) was in the sample cell at 10–20 μM and was titrated by BRCA2 fragments at 40–100 μM, using 10 μL injections with 210 s intervals between each injection. The first 2 μL injection was ignored in the final data analysis. The integration of the peaks corresponding to each injection. the correction for the baseline and the fit were performed using the Origin 7.0 software provided by the manufacturer, to obtain the stoichiometry (N), dissociation constant (Kd), and enthalpy of complex formation (ΔH) for each interaction. Two replicates were performed for each experiment.

[2] = target: T2, ARM domain of HSF2BP (Homo sapiens, UniProt O75031); assay: Analytical gel filtration of ARM with F15XΔ12; format: physicochemical; details: SEC, Superose 6 Increase 10/300, ARM to peptide ratio 1:1.2, pH 7.5
T2 construct: The armadillo domain of HSF2BP, from aa 122 to aa 334; 6xHis-TEV (N, cleaved yes); made in house; host or cells: E. coli BL21 DE3 Rosetta2
T2 sequence (O75031 122-334): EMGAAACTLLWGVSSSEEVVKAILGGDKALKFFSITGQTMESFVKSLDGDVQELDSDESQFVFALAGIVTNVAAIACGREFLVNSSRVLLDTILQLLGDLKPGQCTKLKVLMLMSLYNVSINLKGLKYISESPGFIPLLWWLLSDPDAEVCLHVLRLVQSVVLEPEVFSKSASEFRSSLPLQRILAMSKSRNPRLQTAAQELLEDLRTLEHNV
Method: SEC was also used to characterize ARM and ARM bound to F15XΔ12. The ARM domain was loaded on a Superose 6 Increase 10/300 (GE Healthcare) alone (at 2 mg/ml) or bound to F15XΔ12 (at 5 mg/ml, ARM to peptide ratio 1:1.2) in 25 mM Tris-HCl buffer, pH 7.5, 250 mM NaCl, and 5 mM β-mercaptoethanol. The OD values from the elution of ARM alone were multiplied by 2.5 to be compared to the OD values from the elution of ARM bound to F15XΔ12.

[3] = target: mouse HSF2BP-GFP (homozygous Hsf2bp-GFP knock-in allele) (mouse (endogenous in mES cells)) (UniProt Q9D4G2); assay: co-IP; anti-GFP nanobody beads on lysates of Hsf2bp^GFP/GFP mES cells with Brca2 wt, ∆12 or ∆12-14 alleles; BRCA2 blotted, fluorescent secondary antibodies; NETT buffer
[4] = target: mouse BRCA2-GFP ∆12 (exon 12 deleted) (mouse (endogenous in mES cells)) (UniProt P97929); assay: co-IP; anti-GFP nanobody beads on lysates of mES cells with homozygous Brca2-GFP alleles (full, ∆12, ∆12-14); HSF2BP blotted, fluorescent secondary antibodies; NETT buffer
[5] = target: the molecule itself; assay: SEC-MALS; free ARM; Superdex 200 10/300 GL; 25 mM Tris-HCl pH 7.5, 250 mM NaCl, 5 mM beta-mercaptoethanol; 0.8-1 mg/ml in 100 ul
[6] = target: the molecule itself; assay: SEC-MALS + other: SEC-SAXS; ARM with F15X; SEC-MALS on Superdex 200 10/300 GL, SEC-SAXS on Bio SEC-3; 25 mM Tris-HCl pH 7.5, 250 mM NaCl, 5 mM beta-mercaptoethanol; tetramer = two ARM dimers with two F15X
[7] = tested on: HSF2BP mutant R200T; assay: ITC of BRCA2 F0 with HSF2BP R200T; format: binding, human; details: ITC control
Method: as §1, §3

[8] = target: T2, ARM domain of HSF2BP; assay: 2D NMR 1H-15N HSQC of 15N-labeled F0 with ARM; format: binding; details: 15N-F0 100 μM, ARM 1:1, 950 MHz, 283 K, pH 7.0; region S2252-Q2342
Method: (§4) For NMR analysis, ^15N-labeled or ^15N- and ^13C-labeled BRCA2 fragments were produced in E. coli BL21 DE3 Star cells grown in M9 medium containing either 0.5 g/l ^15NH4Cl or 0.5 g/l ^15NH4Cl and 2 g/l ^13C-glucose, respectively. […]
(§5) The ^15N/^13C-labeled F0 fragment was analyzed by 3D heteronuclear NMR. in order to assign its Hn, N, Cα, Cβ, and Co chemical shifts, and identify its binding site to HSF2BP. Therefore, 3D NMR HNCA, CBCACONH, HNCACB, HNCANNH, HNCO, and HNCACO experiments were performed on a 700 MHz Bruker AVANCE NEO spectrometer equipped with a triple resonance cryogenic TCI probe at 283 K. The data were processed using Topspin 4.0 (Bruker) and analyzed using CCPNMR 2.4[49]. […] For binding studies, 2D NMR ^1H-^15N HSQC experiments were recorded on a 3-mm-diameter sample tube containing the ^15N-labeled F0 at 100 μM in the absence and presence of the ARM domain at 100 μM, on a 950 MHz Bruker Avance III spectrometer equipped with a triple resonance cryogenic TCI probe at 283 K.

[9] = target: T2, ARM domain of HSF2BP; assay: ITC of BRCA2 fragments with HSF2BP armadillo domain; format: binding; details: for ΔG / −TΔS / ΔH (±error): 293 K
Text: as §1, §2, §3

[10] = NMR chemical shift secondary structure analysis of F0; format: physicochemical, human; details: 50 mM Hepes pH 7.0, 50 mM NaCl, 283 K, 700 MHz
Method: as §4, §5

[11] = pH 7.5, expt 1, error in brackets
[12] = pH 7.5, expt 2, error in brackets

mouse BRCA2-GFP ∆12 (exon 12 deleted) (mouse (endogenous in mES cells)), sequence (P97929 whole entry, stated change not applied): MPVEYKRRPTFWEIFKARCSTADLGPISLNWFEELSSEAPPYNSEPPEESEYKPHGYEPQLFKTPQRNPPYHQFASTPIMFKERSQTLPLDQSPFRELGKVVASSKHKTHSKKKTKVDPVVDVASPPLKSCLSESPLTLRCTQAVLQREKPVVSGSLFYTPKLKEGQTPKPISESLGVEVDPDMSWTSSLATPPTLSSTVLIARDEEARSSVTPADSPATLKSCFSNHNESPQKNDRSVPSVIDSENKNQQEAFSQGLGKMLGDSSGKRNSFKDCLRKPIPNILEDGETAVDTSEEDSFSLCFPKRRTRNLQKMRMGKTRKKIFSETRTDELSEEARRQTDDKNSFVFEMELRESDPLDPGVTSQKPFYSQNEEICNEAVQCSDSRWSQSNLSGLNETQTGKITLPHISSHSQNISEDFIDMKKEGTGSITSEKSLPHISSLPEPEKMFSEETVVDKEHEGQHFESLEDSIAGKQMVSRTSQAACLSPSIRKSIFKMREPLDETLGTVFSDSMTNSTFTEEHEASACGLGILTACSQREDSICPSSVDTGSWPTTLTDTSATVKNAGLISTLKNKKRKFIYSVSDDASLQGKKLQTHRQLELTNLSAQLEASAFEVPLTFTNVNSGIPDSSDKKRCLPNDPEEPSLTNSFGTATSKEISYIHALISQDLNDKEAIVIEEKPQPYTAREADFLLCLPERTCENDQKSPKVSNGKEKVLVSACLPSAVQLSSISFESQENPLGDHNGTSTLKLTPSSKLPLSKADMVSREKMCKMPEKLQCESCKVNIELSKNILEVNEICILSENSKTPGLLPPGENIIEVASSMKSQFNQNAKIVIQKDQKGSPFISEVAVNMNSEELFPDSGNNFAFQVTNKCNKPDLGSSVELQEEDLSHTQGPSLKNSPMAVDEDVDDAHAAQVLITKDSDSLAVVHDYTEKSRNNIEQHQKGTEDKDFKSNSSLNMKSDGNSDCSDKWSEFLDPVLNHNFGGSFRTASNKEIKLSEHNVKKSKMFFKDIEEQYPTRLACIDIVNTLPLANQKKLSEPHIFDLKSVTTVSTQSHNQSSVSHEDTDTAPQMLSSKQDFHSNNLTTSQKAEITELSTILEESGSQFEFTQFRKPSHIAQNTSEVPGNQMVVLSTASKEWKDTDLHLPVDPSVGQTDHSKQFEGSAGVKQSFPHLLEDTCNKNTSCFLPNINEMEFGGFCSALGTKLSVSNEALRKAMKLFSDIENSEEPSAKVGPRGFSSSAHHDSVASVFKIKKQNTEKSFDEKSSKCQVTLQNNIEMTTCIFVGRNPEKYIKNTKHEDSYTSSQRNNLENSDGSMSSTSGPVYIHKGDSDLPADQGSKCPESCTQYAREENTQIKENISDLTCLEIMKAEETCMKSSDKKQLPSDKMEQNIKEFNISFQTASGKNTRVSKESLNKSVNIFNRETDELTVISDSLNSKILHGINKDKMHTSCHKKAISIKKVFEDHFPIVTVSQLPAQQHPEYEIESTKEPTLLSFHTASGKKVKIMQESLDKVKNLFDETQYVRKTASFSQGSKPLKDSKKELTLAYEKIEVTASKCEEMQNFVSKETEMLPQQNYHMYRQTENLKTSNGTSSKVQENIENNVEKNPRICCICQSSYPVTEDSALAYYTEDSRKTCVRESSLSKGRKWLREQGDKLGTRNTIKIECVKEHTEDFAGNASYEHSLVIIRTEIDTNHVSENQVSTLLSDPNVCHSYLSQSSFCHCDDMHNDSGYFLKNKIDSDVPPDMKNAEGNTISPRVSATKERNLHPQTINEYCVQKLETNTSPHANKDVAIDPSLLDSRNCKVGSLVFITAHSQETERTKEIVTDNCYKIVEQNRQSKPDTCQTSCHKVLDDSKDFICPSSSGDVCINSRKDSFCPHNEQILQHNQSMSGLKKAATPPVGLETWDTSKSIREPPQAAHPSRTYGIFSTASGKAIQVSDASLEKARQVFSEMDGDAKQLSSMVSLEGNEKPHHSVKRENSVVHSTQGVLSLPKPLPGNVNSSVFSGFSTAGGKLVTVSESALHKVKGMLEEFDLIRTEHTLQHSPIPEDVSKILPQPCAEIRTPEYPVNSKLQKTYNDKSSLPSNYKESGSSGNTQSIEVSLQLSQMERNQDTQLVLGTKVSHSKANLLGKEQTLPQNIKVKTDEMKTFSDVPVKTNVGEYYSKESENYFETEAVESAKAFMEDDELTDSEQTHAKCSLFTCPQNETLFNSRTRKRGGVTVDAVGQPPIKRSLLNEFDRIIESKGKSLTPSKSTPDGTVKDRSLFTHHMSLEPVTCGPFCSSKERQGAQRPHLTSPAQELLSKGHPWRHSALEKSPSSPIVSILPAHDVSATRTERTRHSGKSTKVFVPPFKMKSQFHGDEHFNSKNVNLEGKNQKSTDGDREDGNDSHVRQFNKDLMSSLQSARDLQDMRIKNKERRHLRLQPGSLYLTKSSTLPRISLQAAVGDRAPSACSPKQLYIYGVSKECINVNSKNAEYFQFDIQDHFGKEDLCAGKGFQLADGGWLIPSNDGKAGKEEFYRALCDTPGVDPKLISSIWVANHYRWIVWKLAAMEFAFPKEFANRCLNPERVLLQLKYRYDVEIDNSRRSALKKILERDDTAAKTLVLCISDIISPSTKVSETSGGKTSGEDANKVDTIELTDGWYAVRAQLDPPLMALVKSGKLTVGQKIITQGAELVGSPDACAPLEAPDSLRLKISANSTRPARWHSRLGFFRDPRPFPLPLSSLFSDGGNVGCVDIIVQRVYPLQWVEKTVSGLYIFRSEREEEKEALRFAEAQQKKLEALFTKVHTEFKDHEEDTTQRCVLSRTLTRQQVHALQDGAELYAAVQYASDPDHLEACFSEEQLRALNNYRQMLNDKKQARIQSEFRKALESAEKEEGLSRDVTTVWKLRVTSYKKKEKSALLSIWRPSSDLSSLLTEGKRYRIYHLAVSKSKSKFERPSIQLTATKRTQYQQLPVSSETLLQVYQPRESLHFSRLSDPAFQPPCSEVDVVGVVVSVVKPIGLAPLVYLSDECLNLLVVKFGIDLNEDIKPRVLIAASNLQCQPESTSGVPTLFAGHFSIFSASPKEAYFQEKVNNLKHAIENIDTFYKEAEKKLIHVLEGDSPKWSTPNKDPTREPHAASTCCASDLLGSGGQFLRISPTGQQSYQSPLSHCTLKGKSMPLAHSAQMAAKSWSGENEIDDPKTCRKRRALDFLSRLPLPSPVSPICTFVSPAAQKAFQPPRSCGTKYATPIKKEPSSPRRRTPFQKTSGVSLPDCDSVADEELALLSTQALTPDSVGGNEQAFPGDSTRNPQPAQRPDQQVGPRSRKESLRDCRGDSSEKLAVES

DGTIKDRRLFMHHVSLEPITTVPFRTTKERQE [F15XΔ12]
n (stoichiometry) ([1]; pH 7.5, expt 1): 0.89
ΔG ([1]; pH 7.5, expt 1): -32.6 kJ/mol
−TΔS ([1]; pH 7.5, expt 1): -25.5 kJ/mol
ΔH (±error) [1, 11]: −1.7 (0.3) kcal/mol
n (stoichiometry) ([1]; pH 7.5, expt 2): 0.90
ΔG ([1]; pH 7.5, expt 2): -31.8 kJ/mol
−TΔS ([1]; pH 7.5, expt 2): -24.3 kJ/mol
ΔH (±error) [1, 12]: −1.8 (0.2) kcal/mol
affinity (in words) ([1]; pH 7.5, listed as F15X∆12): in the micromolar range
affinity (in words) ([1]; pH 7.5, listed as motif 2): micromolar affinity
stoichiometry [1]: 1
affinity relative to F0 (weaker) ([1]; weaker than the affinity of HSF2BP for F0): 1000 -fold
oligomerization of ARM upon binding ([2]; listed as F15X∆12): does not oligomerize
oligomerization of ARM upon binding ([2]; listed as motif 2): unable by itself to trigger oligomerization

mouse BRCA2-∆12 in Hsf2bp^GFP/GFP Brca2^∆12/∆12 mES cells (from UniProt P97929 1-3329) (natural protein)
percent loss of co-precipitation against wild-type BRCA2 [3]: 97 to 99%

B1: mouse HSF2BP, endogenous in mES cells (natural protein)
chain: MAATVGDGSGTEEACRNMESKEEFVKVRKKDLERLTTEVMQIRDFLPRILNGELLESFQKLKMVEKNLERKEQELEQLIMDREHFKARLETAQADSGREKKEKLALRQQLNEAKQQLLQQAEYCTQMGAVTCTLLWGVSSSEEVVKTILGGDKALKFFNITGQTMESFVKSLDGDVKEVDSDENQFVFALAGIVTNVAAIACGREFLVNSSRVLLDTMLQLLGDLKPGQCTKLKVLMLMSLYNVSINSKGLKYITESPGFIPLLWWLLSDPDAEVCLHTLRLIQSVVLEPDVFSKVASELQSSLPLQRILAMSKSRNSHLQSAAQELLEDLRALDCNV
percent loss of co-precipitation against full-length BRCA2-GFP [4]: 95%

B2: armadillo domain of HSF2BP, from aa 122 to aa 334 (ARM) (domain or fragment, human, UniProt O75031 122-334, looked up)
chain: EMGAAACTLLWGVSSSEEVVKAILGGDKALKFFSITGQTMESFVKSLDGDVQELDSDESQFVFALAGIVTNVAAIACGREFLVNSSRVLLDTILQLLGDLKPGQCTKLKVLMLMSLYNVSINLKGLKYISESPGFIPLLWWLLSDPDAEVCLHVLRLVQSVVLEPEVFSKSASEFRSSLPLQRILAMSKSRNPRLQTAAQELLEDLRTLEHNV
notes: Free ARM is a dimer (SEC-MALS); four ARM with two F15X in the complex; A selenomethionine-labelled form was used for the deposited crystal structure; also called HSF2BP ARM; H3 (recombinant); source: E. coli BL21 DE3 Rosetta2, purified (HisTrap, TEV cleavage, SEC)
stoichiometry N [5]: 2
stoichiometry N [6]: 4

B3: F0: Human BRCA2 fragment aa 2213 to aa 2342 including mutation C2332T, recombinant (protein)
chain: STYSKDSENYFETEAVEIAKAFMEDDELTDSKLPSHATHSLFTCPENEEMVLSNSRIGKRRGEPLILVGEPSIKRNLLNEFDRIIENQEKSLKASKSTPDGTIKDRRLFMHHVSLEPITTVPFRTTKERQ
modifications: left off: GB1, C-terminal, cleaved | His6, C-terminal, cleaved
notes: Human BRCA2 fragment aa 2213 to aa 2342 including mutation C2332T, recombinant
binding [7]: does not bind
ΔG ([1]; pH 7.5, expt 1): -49.4 kJ/mol
−TΔS ([1]; pH 7.5, expt 1): -3.3 kJ/mol
ΔH (±error) [1, 11]: −11.0 (0.1) kcal/mol
−TΔS ([1]; pH 7.5, expt 2): -4.18 kJ/mol
ΔH (±error) [1, 12]: −10.9 (0.1) kcal/mol
stoichiometry [1]: 0.5
affinity ratio HSF2BP vs ARM ([1]; HSF2BP binds tighter to F0 than does ARM): about 25 -fold
HSQC peak intensity ratio (with ARM / free) [8]: lower than 0.4
ΔG ([9]; pH 7.5, expt 1): -41.8 kJ/mol
−TΔS ([9]; pH 7.5, expt 1): -7.11 kJ/mol
ΔH (±error) [9, 11]: −8.3 (0.2) kcal/mol
ΔG ([9]; pH 7.5, expt 2): -42.3 kJ/mol
−TΔS ([9]; pH 7.5, expt 2): 7.53 kJ/mol
ΔH (±error) [9, 12]: −11.9 (0.2) kcal/mol
stoichiometry ([9]; one BRCA2 peptide binds to two ARM): 0.5
transient α-helix population, region N2291-S2303 [10]: about 25%
